Laboratory results published in article PMC7295242.

What was measured:
[1] = system: CCHFV nucleoprotein (NP) (Crimean-Congo hemorrhagic fever orthonairovirus); experiment: fluorescence anisotropy
[2] = system: CCHFV nucleoprotein (NP) (Crimean-Congo hemorrhagic fever orthonairovirus); experiment: competition fluorescence anisotropy

For 27-mer RNA, the Kd [1] was 190 nM and the IC50 [2] was 197 nM.
48-mer RNA gave a Kd [1] of 230 nM and an IC50 [2] of 167 nM.
